Test [1] concerns the target CD163 on macrophages of heterozygous pigs 627 and 634 (both the full-length and the ΔSRCR5 protein). The experiment in a line: cell-based or functional assay.
The target in test [2] is wild type (full-length, unmodified) porcine CD163 (pig) (UniProt Q2VL90). The experiment in a line: cell-based or functional assay.
Test [3] has as its target ΔSRCR5 CD163 (porcine CD163 with the SRCR5 domain deleted) (pig) (UniProt Q2VL90). The experiment in a line: cell-based or functional assay.
For test [4], the target named is CD163 on macrophages of all six pigs 628, 633, 627, 634, 629, 630 (wild type, heterozygous and ΔSRCR5). The experiment in a line: cell-based or functional assay.
Test [5] has the same target. The experiment in a line: flow cytometry on PAMs, isotype control staining of the six pigs. For orientation: Flow cytometry measures light scatter and fluorescence of single cells or particles in a stream.
The target is the same in test [6]. The experiment in a line: flow cytometry on PMMs, isotype control staining of the six pigs.
Test [7] concerns the target ΔSRCR5 CD163 (porcine CD163 with the SRCR5 domain deleted) (pig) (UniProt Q2VL90). The experiment in a line: flow cytometry on PMMs of pig 629 (ΔSRCR5).
Test [8] has as its target CD163 on macrophages of heterozygous pigs 627 and 634 (both the full-length and the ΔSRCR5 protein). Put plainly: flow cytometry on PMMs of pig 627 (heterozygous).
The target in test [9] is ΔSRCR5 CD163 (porcine CD163 with the SRCR5 domain deleted) (pig) (UniProt Q2VL90). Put plainly: flow cytometry on PAMs of pig 629 (ΔSRCR5).
Test [10] has as its target wild type (full-length, unmodified) porcine CD163 (pig) (UniProt Q2VL90). The experiment in a line: flow cytometry on PAMs of pig 628 (wild type).
Test [11] has as its target CD163 on macrophages of heterozygous pigs 627 and 634 (both the full-length and the ΔSRCR5 protein). Put plainly: flow cytometry on PMMs of pig 634 (heterozygous).
In test [12] the target is wild type (full-length, unmodified) porcine CD163 (pig) (UniProt Q2VL90). Put plainly: flow cytometry on PMMs of pig 628 (wild type).
For test [13] the target is unchanged. Put plainly: flow cytometry on PMMs of pig 633 (wild type).
Test [14] addresses ΔSRCR5 CD163 (porcine CD163 with the SRCR5 domain deleted) (pig) (UniProt Q2VL90). The experiment in a line: flow cytometry on PMMs of pig 630 (ΔSRCR5).
Test [15] deals with CD163 on macrophages of heterozygous pigs 627 and 634 (both the full-length and the ΔSRCR5 protein). The experiment in a line: flow cytometry on PAMs of pig 627 (heterozygous).
Test [16] shares this target. The experiment in a line: flow cytometry on PAMs of pig 634 (heterozygous).
For test [17], the target named is ΔSRCR5 CD163 (porcine CD163 with the SRCR5 domain deleted) (pig) (UniProt Q2VL90). The experiment in a line: flow cytometry on PAMs of pig 630 (ΔSRCR5).
The target in test [18] is wild type (full-length, unmodified) porcine CD163 (pig) (UniProt Q2VL90). Put plainly: flow cytometry on PAMs of pig 633 (wild type).

The record followed here is patent US20200045945A1.

Values joined by “and” are separate entries in the source; they are usually repeats but may differ in a detail not shown here. Equal values may be shown once.

In [1], “Alexa Fluor 488-labelled hemoglobin-haptoglobin complex (HbAF488-Hp) (from UniProt P69905 2-142; P68871 2-147; P00738 19-406) (ligand)” registered a medians of green fluorescence, HbAF488-Hp uptake into PMMs by FACS, animal 627 (heterozygous) of 329 and a medians of green fluorescence, HbAF488-Hp uptake into PMMs by FACS, animal 634 (heterozygous) of 366. In test [2], the medians of green fluorescence, HbAF488-Hp uptake into PMMs by FACS, animal 628 (wild type) came out at 329 and the medians of green fluorescence, HbAF488-Hp uptake into PMMs by FACS, animal 633 (wild type) was 305. In test [3], this substance returned a medians of green fluorescence, HbAF488-Hp uptake into PMMs by FACS, animal 629 (ΔSRCR5) of 340 and a medians of green fluorescence, HbAF488-Hp uptake into PMMs by FACS, animal 630 (ΔSRCR5) of 405.
Regarding “hemoglobin-haptoglobin complex (Hb-Hp) (from UniProt P69905 2-142; P68871 2-147; P00738 19-406) (ligand)”, the HO-1 mRNA upregulation in PMMs after 24 h with Hb-Hp, RT-qPCR in test [4] was 2 fold and 6 fold.
Turning to “mouse IgG1 or IgG2b negative control (AbD Serotec, MCA928PE, MCA691F, or Sigma, F6397) (antibody)”, the figures for the median of fluorescence intensity in [5] and in test [6] were 2.13 to 3.84 and 1.88 to 3.79, respectively.
Take “mouse anti-pig CD163 antibody, clone 2A10/11 (AbD Serotec, MCA2311PE)”: the median of CD163 fluorescence intensity in [7] was determined as 18.8; in [8], 18.3; in test [9] it was 17.9; in [10], 35.9; in test [11], 16.5; in test [12], 23.3. The median of CD163 fluorescence intensity came to 16.7 in test [13]; 17.2 in [14]; 26.4 in [15]; 24.4 in test [16]; 26.7 in test [17]; 22.7 in test [18].
